Laboratory results: patent US20170152290A1 (CENTRO DE INGENIERIA GEN TICA Y BIOTECHNOLOGIA, published 2017)

T1: activated human alfa-2-macroglobulin (α2M_MeNH2) (human, UniProt P01023 24-1474)
T1 construct: mature
T1 sequence (looked up): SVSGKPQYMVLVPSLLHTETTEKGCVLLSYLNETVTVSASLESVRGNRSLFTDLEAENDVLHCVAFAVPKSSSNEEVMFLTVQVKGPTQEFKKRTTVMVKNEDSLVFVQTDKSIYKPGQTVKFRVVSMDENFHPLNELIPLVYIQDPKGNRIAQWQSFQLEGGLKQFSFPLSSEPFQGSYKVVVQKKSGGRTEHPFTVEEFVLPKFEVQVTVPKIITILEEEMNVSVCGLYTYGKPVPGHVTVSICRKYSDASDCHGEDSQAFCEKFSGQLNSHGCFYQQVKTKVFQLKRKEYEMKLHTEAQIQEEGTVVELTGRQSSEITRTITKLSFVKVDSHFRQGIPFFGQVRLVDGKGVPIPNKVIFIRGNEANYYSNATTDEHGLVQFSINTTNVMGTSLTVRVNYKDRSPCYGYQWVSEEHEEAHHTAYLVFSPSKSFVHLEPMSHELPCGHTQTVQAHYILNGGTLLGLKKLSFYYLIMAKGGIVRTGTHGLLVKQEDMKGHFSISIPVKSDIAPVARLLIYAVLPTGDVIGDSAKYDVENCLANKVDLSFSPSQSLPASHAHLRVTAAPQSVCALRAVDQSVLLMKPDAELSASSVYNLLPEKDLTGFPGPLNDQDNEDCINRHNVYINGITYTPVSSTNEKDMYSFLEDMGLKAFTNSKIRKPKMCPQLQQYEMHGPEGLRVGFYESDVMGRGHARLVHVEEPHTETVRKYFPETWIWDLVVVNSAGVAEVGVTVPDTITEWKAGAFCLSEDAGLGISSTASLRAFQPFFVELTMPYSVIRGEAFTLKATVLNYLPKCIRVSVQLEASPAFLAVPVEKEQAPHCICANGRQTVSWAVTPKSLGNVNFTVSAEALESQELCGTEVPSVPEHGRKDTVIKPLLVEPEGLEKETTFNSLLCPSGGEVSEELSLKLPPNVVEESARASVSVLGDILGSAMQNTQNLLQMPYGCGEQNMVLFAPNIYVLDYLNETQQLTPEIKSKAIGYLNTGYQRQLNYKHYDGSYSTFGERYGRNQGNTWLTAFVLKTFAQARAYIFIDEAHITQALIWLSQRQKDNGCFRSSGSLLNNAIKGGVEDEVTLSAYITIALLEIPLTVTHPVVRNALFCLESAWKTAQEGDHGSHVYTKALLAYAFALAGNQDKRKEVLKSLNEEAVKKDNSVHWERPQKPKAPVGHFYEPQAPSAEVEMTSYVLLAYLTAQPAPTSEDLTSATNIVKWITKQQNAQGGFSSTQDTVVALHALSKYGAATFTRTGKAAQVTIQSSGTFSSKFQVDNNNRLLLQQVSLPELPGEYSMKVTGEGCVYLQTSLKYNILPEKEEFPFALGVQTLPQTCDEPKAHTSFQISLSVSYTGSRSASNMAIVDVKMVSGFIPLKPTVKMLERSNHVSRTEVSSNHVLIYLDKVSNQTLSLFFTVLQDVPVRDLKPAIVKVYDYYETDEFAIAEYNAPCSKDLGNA


What was measured:
[1] = target: recombinant Human Serum Albumin (rHSA) (human, UniProt P02768 25-609); experiment: SPR (Biacore X), CM5 chip, sLRP1-CIV immobilised on Fc1 and rHSA on Fc2, analyte at 100 nM
[2] = target: T1, activated human alfa-2-macroglobulin …; experiment: competition ELISA, α2M* coated, DIIIE1PRSbiot as labelled ligand

Row | Binder | binding result [1] | fold increase of IC50 against wild-type DIIIE1PRS [2] | fold reduction of affinity against wild-type DIIIE1PRS [2]
1 | Receptor-Associated Protein (RAP) (ligand, UniProt P30533 35-357, looked up) YSREKNQPKPSPKRESGEEFRMEKLNQLWEKAQRLHLPPVRLAELHADLKIQERDELAWKKLKLDGLDEDGEKEARLIRNLNVILAKYGLDGKKDARQVTSNSLSGTQEDGLDDPRLEKLWHKAKTSGKFSGEELDKLWREFLHHKEKVHEYNVLLETLSRTEEIHENVISPSDLSDIKGSVLHSRHTELKEKLRSINQGLDRLRRVSHQGYSTEAEFEEPRVIDLWDLAQSANLTDKELEAFREELKHFEAKIEKHNHYQKQLEIAHEKLRHAESVGDGERVSRSREKHALLEGRTKELGYTVKKHLQDLSGRISRARHNEL | no binding (tested: 100 nM) | – | –
2 | DIIIE1PRS alanine mutant, variant E375 (other, also called Glu375 to Ala) MDKLTLKGMSYVMCTGSFKLEKEVAETQHGTVLVQVKYEGTDAPCKIPFSTQDEKGVTQNGRLITANPIVTDKEKPVNIETEPPFGASYIVVGAGEKALKLSWFKKGSSIGVDHHHHHH | – | ≥ 2 fold | –
3 | DIIIE1PRS alanine mutant, variant K385 (other, also called Lys385 to Ala) MDKLTLKGMSYVMCTGSFKLEKEVAETQHGTVLVQVKYEGTDAPCKIPFSTQDEKGVTQNGRLITANPIVTDKEKPVNIETEPPFGESYIVVGAGEAALKLSWFKKGSSIGVDHHHHHH | – | > 10 fold | > 22 fold
4 | DIIIE1PRS alanine mutant, variant T346 (other) MDKLTLKGMSYVMCTGSFKLEKEVAETQHGTVLVQVKYEGTDAPCKIPFSTQDEKGVAQNGRLITANPIVTDKEKPVNIETEPPFGESYIVVGAGEKALKLSWFKKGSSIGVDHHHHHH | – | ≥ 2 fold | –
5 | DIIIE1PRS alanine mutant, variant K363 (other, also called Lys363 to Ala) MDKLTLKGMSYVMCTGSFKLEKEVAETQHGTVLVQVKYEGTDAPCKIPFSTQDEKGVTQNGRLITANPIVTDKEAPVNIETEPPFGESYIVVGAGEKALKLSWFKKGSSIGVDHHHHHH | – | ≥ 2 fold | –
6 | DIIIE1PRS alanine mutant, variant E342 (other, also called Glu342 to Ala) MDKLTLKGMSYVMCTGSFKLEKEVAETQHGTVLVQVKYEGTDAPCKIPFSTQDAKGVTQNGRLITANPIVTDKEKPVNIETEPPFGESYIVVGAGEKALKLSWFKKGSSIGVDHHHHHH | – | ≥ 2 fold | –
7 | DIIIE1PRS alanine mutant, variant N366 (other, also called Asn366 to Ala) MDKLTLKGMSYVMCTGSFKLEKEVAETQHGTVLVQVKYEGTDAPCKIPFSTQDEKGVTQNGRLITANPIVTDKEKPVAIETEPPFGESYIVVGAGEKALKLSWFKKGSSIGVDHHHHHH | – | ≥ 2 fold | –
8 | DIIIE1PRS alanine mutant, variant E362 (other) MDKLTLKGMSYVMCTGSFKLEKEVAETQHGTVLVQVKYEGTDAPCKIPFSTQDEKGVTQNGRLITANPIVTDKAKPVNIETEPPFGESYIVVGAGEKALKLSWFKKGSSIGVDHHHHHH | – | > 10 fold | –
9 | DIIIE1PRS alanine mutant, variant G374 (other, also called Gly374 to Ala) MDKLTLKGMSYVMCTGSFKLEKEVAETQHGTVLVQVKYEGTDAPCKIPFSTQDEKGVTQNGRLITANPIVTDKEKPVNIETEPPFAESYIVVGAGEKALKLSWFKKGSSIGVDHHHHHH | – | ≥ 2 fold | –
10 | DIIIE1PRS alanine mutant, variant V365 (other, also called Val365 to Ala) MDKLTLKGMSYVMCTGSFKLEKEVAETQHGTVLVQVKYEGTDAPCKIPFSTQDEKGVTQNGRLITANPIVTDKEKPANIETEPPFGESYIVVGAGEKALKLSWFKKGSSIGVDHHHHHH | – | > 10 fold | –
11 | DIIIE1PRS alanine mutant, variant R350 (other, also called Arg350 to Ala) MDKLTLKGMSYVMCTGSFKLEKEVAETQHGTVLVQVKYEGTDAPCKIPFSTQDEKGVTQNGALITANPIVTDKEKPVNIETEPPFGESYIVVGAGEKALKLSWFKKGSSIGVDHHHHHH | – | ≥ 2 fold | –
12 | DIIIE1PRS alanine mutant, variant P372 (other, also called Pro372 to Ala) MDKLTLKGMSYVMCTGSFKLEKEVAETQHGTVLVQVKYEGTDAPCKIPFSTQDEKGVTQNGRLITANPIVTDKEKPVNIETEPAFGESYIVVGAGEKALKLSWFKKGSSIGVDHHHHHH | – | ≥ 2 fold | –
13 | DIIIE1PRS alanine mutant, variant P364 (other) MDKLTLKGMSYVMCTGSFKLEKEVAETQHGTVLVQVKYEGTDAPCKIPFSTQDEKGVTQNGRLITANPIVTDKEKAVNIETEPPFGESYIVVGAGEKALKLSWFKKGSSIGVDHHHHHH | – | > 10 fold | –
14 | DIIIE1PRS alanine mutant, variant K361 (other, also called Lys361 to Ala) MDKLTLKGMSYVMCTGSFKLEKEVAETQHGTVLVQVKYEGTDAPCKIPFSTQDEKGVTQNGRLITANPIVTDAEKPVNIETEPPFGESYIVVGAGEKALKLSWFKKGSSIGVDHHHHHH | – | > 10 fold | –
